According to the DeepSol protein solubility set:

Assay: soluble on expression in E. coli; label from the status in PepcDB or PDB records
With “MKANKVLFITQEITPYVPESEMANMGRFLPQAIQEKGREIRTFMPKWGNVNERRNQLHEVIRLSGMNLIIDDTDHPLIIKVASIQAARMQVYFIDNDDYFQHRQMVADENGVEYKDNDERAIFYARGVLETVKKLRWCPDIIHCQGWMSAFVPLYIKKAYQDEPSFRDSKVVFSVFEDDFKSDCEGNLTEKLMLKGIEKNDVESIVKSPANYEELCKLAIAYSDGVIQNSEKVNENVMKFARESGVPVLDYQPADTYVDAFNEFYDKVWEFEKK” the “soluble on expression in E. coli” value was “not soluble”. In the case of “MKATLFVREFLLNPRTIGAILPSSDYLAEKMMASVCFEQAKYIIEYGPGTGVFTDKILRYRHPDTVVMIIEHNREFFCILNEKYQDEKNVIIINGSAEHIETYVKEHNIPFVDYIISGLPFASLPLHVSNAILNKARYLLGVKGKFITFQYTQTKVRLFTQFFNQMTVERVYRNLPPAFVFSCYNEKLEHHHHHH”, the “soluble on expression in E. coli” value is reported as “soluble”. For “MKATVSTIDNRGNLGKVLKDVTSKDSIKGYTVAAATAGVAQGLNYNPSAMGLDAKSLQTVAVKVTADALIKTAVYGGSFKDNLASAAAGTAASIGGAYGAGKIGDLGLTEGGLAKIALHAGLGGLLSEAMGGDFRTGAIAGGANELLVGVLGDKLEHHHHHH”, the “soluble on expression in E. coli” value was “not soluble”. For “MKAVAINGYGTVGKRVADAIAQQDDMKVIGVSKTRPDFEARMALKKGYDLYVAIPERVKLFEKAGIEVAGTVDDMLDEADIVIDCTPEGIGAKNLKMYKEKGIKAIFQGGEKHEDIGLSFNSLSNYEESYGKDYTRVVSCNTTGLCRTLKPLHDSFGIKKVRAVIVRRGADPAQVSKGPINAIIPNPPKLPSHHGPDVKTVLDINIDTMAVIVPTTLMHQHNVMVEVEETPTVDDIIDVFEDTPRVILISAEDGLTSTAEIMEYAKELGRSRNDLFEIPVWRESITVVDNEIYYMQAVHQESDIVPENVDAVRAILEMEEDKYKSINKTNKAMNILQ”, the “soluble on expression in E. coli” value was “soluble”. With “MKAVKATLMYDGLGNIEKNVYIIFDKDIVNITREKPKDVEVVAEGVVTPAFIDAHSHIGMDRYGEPYQESELNEQMDSVLPLADALYSIYMDDKAFKHSIEFGVLYSSILPGSGNIIGGKGVLIRNYGRDIEDAFIKYVGVKAAFGYNPRSTTNWKGLRPSTRMGAIGILFNWLIKTKKTISLLEKGKKDPEEIDPVIEALIPVLKGEMPLRVHAHKEDDIAVLLMIKRKFNLKVTVEHAADVHSKETFEKIKREGVPLVYGPLDAHPYKVELKHEDWKNAKYLLEVKPFFGLMSDHPFSIQANLYLQLRHFIRLGMSKAEAIKLITYNNAKILGIEDKLGSLEKGKWASLVVWNGDPFNLENYPTHVFAEGELIHEANL” the “soluble on expression in E. coli” value was “soluble”. With “MKCLVTGGNVKVLGKAVHSLSRIGDELYLEPLEDGLSLRTVNSSRSAYACFLFAPLFFQQYQAATPGQDLLRCKILMKSFLSVFRSLAMLEKTVEKCCISLNGRSSRLVVQLHCKFGVRKTHNLSFQDCESLQAVFDPASCPHMLRAPARVLGEAVLPFSPALAEVTLGIGRGRRVILRSYHEEEADSTAKAMVTEMCLGEEDFQQLQAQEGVAITFCLKEFRGLLSFAESANLNLSIHFDAPGRPAIFTIKDSLLDGHFVLATLS” the “soluble on expression in E. coli” value was “soluble”. In the case of “MKCQKDDPICHLRDDMQDGDNSVNRTVSHLFQLTLTILTRVYSNLNEISLVCQSWNLHAESSGIYKIPQKVQISLLKTFETNREAKSKNLLDPVLLDQFANQSIRAHSLLLLPYSTTRYKTWTGKTFSKHNLIDEFVGKSFECATESFCPDPCCSGIPSVVRSSSKYAPLCKMNSCQKASTCIVKHFENDDLSKLRLNQFNVNCGCEEPGTIYRPDIGRCVHHNPCTKQSLCRDFGQECVNTASGYKCVCQLGYFRNGSNSCAPLKFSAPVYHGFALSEEMDEL”, the “soluble on expression in E. coli” value is reported as “not soluble”. For “MKCRKCGEPSVYHQKHSGNKYCRTCFIKETKRKVRKTLGRDVLKNNIKVAMGLSGGKDSLVMAYLLNEFYKEIPNSKIIAIMVNEGIEGYRLDGIEAAVKFCEKHDIEYKIVQFKDYLGTNLDEIVKLAKEKNLTMNPCSFCGVIRRKILNRVSIEEKCDFLAIGHNLDDIAQAVMMNYIEGDVKKLAFLGKSLKHPKFVKRIKPLEKIPEDEVLLLADMLELTYHKSPCPYSCLSFRSEVSEITDTLEKNHPGTKYSIVRGYERLLEHIELPGYTGECKICGDLSATEVCKVCSYLKNLGILEKSKFEKI”, the “soluble on expression in E. coli” value was “not soluble”. For “MKDHSGISFGKNPTVLAIENYIRENGLTPGDVLPSEAAICEHLSVSRSSVREAMRTLASLDVVEIRHGHGTYVGKMSMAPLVNGMVLRLTLNEKSAIENLQHVVGMRIALDRSNAQELAAYYKGRETPKLDQIVEEMKIQFERGESFEHQDFLFHQLLNDHLSNPLMQEFSMALWEIHTRVVPRLGLRDPEDISNTVQAHAHMVEALRAGDVDKLLETIDEHYQPLLSILEKNRQYVEQTEHAVESQKGTLHL”, the “soluble on expression in E. coli” value was “not soluble”. In the case of “MKDILIIAGPTAVGKTDISIKIAQKMNGEIISADSMQIYKYMDIGSAKVTKEEMKGIKHHLIDVVDPSEEFSVASFKKMAQNAIDDITSRKKYPIIVGGTGLYINSLICNYDFTGAYKDEAYRESLQAIAKDKGKEYLHEKLKNIDIDSYKKLYPNDLKRVIRALEVYKITGKTISELNSNVDLYDIPYNIHYFILNMDRQKLYERINLRVDIMLRNGLVDEVIKLRDMGYNSNMQSMKGIGYKEILSYLEGCITLEEAVELIKKGSRHYAKRQLTWFRKDERAVWINKDIYKNDDDIVFKILSSIEEILEHHHHHH”, the “soluble on expression in E. coli” value is reported as “not soluble”. With “MKDKQLRLRIYRSAFSSMKNAIVEKAREFGVPVILVDPSYTSSICPVHGSKIIYQPDGGSAPRVGVCGKGGERWHRDVVALYNLRKRAGDVLEHHHHHH” the “soluble on expression in E. coli” value was “not soluble”. With “MKDLIIIGAGQAGLTMGYYLKQEGYNFLLLEAGNRVGDSWRNRYDSLQLFTPRSYSSLPGMALIGEKNEFPYKDEIATYLEEYARHFQLPVQLQTEVLKIRKEKGIFELHTSTEILQTKKVIIATGGFQQPFIPSVSANLSSHVFQIHSSQYKSPSQIPQGKVLVVGGGNSGMQIAVEFAKTHEVTMSISHPLTFLPLHFFRKSIFNWLEKLGLLYAEVSTKRGKWFQKRKDPLEHHHHHH” the “soluble on expression in E. coli” value was “soluble”. In the case of “MKDSSRAELMRKVQETSFACVDMNLYLDNHPDDKNAINTYNSLCNQFAQARYAYENKYGPLTNFGYAPSRCPWQWADQPWPWDREFNYLEHHHHHH”, the “soluble on expression in E. coli” value is reported as “soluble”. For “MKDTVKSLKQELQTITHWEHSQKDLWFWEKLGRLPFQVLDKLTPKVVHRKLGQLLDELGSYIQSGGQYLVNEGKVLDKLGVSSLAEVPHLPLETMDRVCDELIDARVTFAQLQGAATGIGGALTLAVDIPALLGLALKTLQEIAIVYGYDPKEKEERVFVVKCLQFAAADIVGKKAILDELSSFSNERGRVFSELQGWREVMMTFRDQYGWKKLFQAVPIIGVIFGSLFNKSFMEDIAETGKMLYRKRRIIEKLKQFEPGI”, the “soluble on expression in E. coli” value was “not soluble”. In the case of “MKDYIRSVLDVVAESPFVPLETHARKGVLAVEKLSEAMEAYCTGNQALLDERTEEIDVLEHEADKIKQKIRASIPSSVRLPVNKKDLLSFLKQQDSIADFAQASAYWMTLRPCKDLPDEIKEGFLELMATSLKTARMYDRLVGELYKLLATSFSKEEIKETLQLVPEVEKLEHDVDVLETALLKKIFEHESAIGGAGVCHLMGLVERIGGIADKSASAADRLRSMILRRLEHHHHHH”, the “soluble on expression in E. coli” value is reported as “soluble”. For “MKEIDIIQQIKLGEVSKVQFKERLLDNYDIGCELVAFSNARGGTLVVGAVDKTGNINPLSYLEVQETTNTLSNIASENVVPAILVDVETISVDGGSLVVAHIKEGLNKPYHDNRGIVWVKNGADKRKVFDNAELAEMMTDCGSFSPDEAGVRDATIKDLDEGTIKTFLSNKFDKVLARKGLVGDAFREASLDTVCSAIASGHNGEKLLRNLRFIRPDGKITVAAMLLFGKYTQRWLPMMTAKCICFVGNNLGGTQFRDKVNDADIEGNLLHQFETIMDFFTRNLRHIQVGNEFNSQGVLEIPYTSLVEFTVNALVHRSLNATAPIRIFIFDDRVEIHSPGILPNGLTVDDIVIGTSMPRNMFLFTNAIHLLPYTGAGSGMLRALSEDVNVSFTNNDRTNEFVITINRQISNQPNADSDTDLDTDSDTFNADSDTKLRYSDTDLDTDSDTFNADSDTIRPKITNKQRDIVNFCSVPRSSKEILERVGVTYHSKNIQTYIMSLIEAGYLEMTNPEHPNASNQKYRRSKKLEHHHHHH”, the “soluble on expression in E. coli” value was “soluble”. With “MKEIKLILTDIDGVWTDGGMFYDQTGNEWKKFNTSDSAGIFWAHNKGIPVGILTGEKTEIVRRRAEKLKVDYLFQGVVDKLSAAEELCNELGINLEQVAYIGDDLNDAKLLKRVGIAGVPASAPFYIRRLSTIFLEKRGGEGVFREFVEKVLGINLEDFIAVIQ” the “soluble on expression in E. coli” value was “soluble”. With “MKEIKVIIAGPRGRMGHEAVLLMERTEHFNLVAAVDYKHGGEKISDLPGMPALHAPIYADLHTCLDEVEADVLLDLTTPEVGKQHVTLAVERGLRSVIGTTGFTEEELTRLTENAKEKAVGTIIAPNFAIGAVLMMKFSQMAAKYFQDVEVIELHHDQKLDAPSGTAVKTVELIRQNRESKQQGHPNEVEQLAGARGANVDGIHIHSVRLPGLIAHQEVMFGGDGQMLTVRHDSFNRASFMSGVKLSIETVMNLDHLVYGLENIID” the “soluble on expression in E. coli” value was “not soluble”. For “MKEKDLIRFMDRMIEERKAEYALGTAHIYQASRNALSAFLKAHDIPFKRVRPELLKQFERFLRRRGNSWNTVSTYMRVLRAVYNRAVDRRLAPHVPHLFKAVYTGTQADIKRALKAEEMGQLLDTKCTRKQSELLQKTHHLFVLMFLLRGLPFVDLAYIQKKDLNGNILTYHRRKTGRQITITVTKDAMNIIREYMDTTTESPYLFPILSAEGGEDTIYREYQQALRIFNYQLTKLGELLGLTTELTSYTARHTWATLAYYLEVHPGIIREAMGHSSIKVTETYLKPFNIKKLDETNLSIIGYAKRSFEG”, the “soluble on expression in E. coli” value was “not soluble”. With “MKEKIPFYNEKEFHDMVKKTKKGTFSGWYIIDKDNNSVEFSGKFNRQFKLNKPVIPVNTEYVTRKEFNEYKNSNDQRLTKIETTLAAQGEQINKLTQTVEKQGEQINQLVQVVLLHGEQINKLTQTVEKQGEQIKELQIEQKAQGETLKLILQTLQKMSDRLDKMEVKMDKMEVKMDKMEVKMDKMEKRIDKLESKLEHHHHHH” the “soluble on expression in E. coli” value was “not soluble”. In the case of “MKEKISEKEYKALIRKIGKEHFDGEKEEYGDGTVGVWTYELRKYKLKPPVKVKYVTQEQFQEYKDSNNQRLIKIETTLAAQGEQIRIQVEQIKELQIEQKAQGETLKLILQTLQKMSDRLDKMEVKMDKMEEKMDKMEGKIDKIENRMDKMEVKMDKMEKRIDKLESKLEHHHHHH”, the “soluble on expression in E. coli” value is reported as “not soluble”. In the case of “MKELRRFHLDHDFKIRDWVVVLNEIVVSRWDEVRREKVYRIGFQEFDCSDGWDIEREDGTIATVVFVKSSFDFFVWSK”, the “soluble on expression in E. coli” value is reported as “not soluble”. In the case of “MKEPVKPTVKLAEIPPREPRFTPEQERIYARLSVHDPFNMLSEQHKANLIQLMTHGLGYRPIQLS”, the “soluble on expression in E. coli” value is reported as “not soluble”. In the case of “MKETNGIPARLRQVAVIRDGPRQETVVLEADGMYYIKGETVYLQFAEENELGRVNNIVKIAPDEVTVLRSGAVEMRQTSRRRQETSGHYGTVFGRWALAAKTSSMEFHYDERRKKGRLFLSYELMLGDERSGRHTLTLTFKGV”, the “soluble on expression in E. coli” value is reported as “not soluble”.
